# B1: TPR t1 (parent)
# chain: GACCAAUCUGCCCUCAGAGCUCGAGAACAUCUUCGGAUGCAGAGGAGGCAGGCUUCGGUGGCGCGAUAGCGCCAACGUCCUCAACCUCCAAUGCAUCCCACCACAUGAUGAUGCCUGAAGAGCCUUGGUUUUUUG
# Variants of: B1
# Assay: polymerase ribozyme fitness, log enrichment relative to wild type (log ratio); higher = more active; in vitro selection for triplet polymerase activity
# Outline: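 One round of in vitro selection, in triplicate, was applied to PCR-built, transcribed mutant libraries of each subunit of a heterodimeric triplet polymerase ribozyme. The steps were annealing with a biotinylated primer, partner subunit and triplets, incubation frozen at −7 °C, gel excision of extended constructs, streptavidin-bead capture and RT-PCR. Fitness is the logarithm, base 2, of genotype enrichment over wild-type enrichment from inverse-variance-weighted replicate averages of Illumina-sequenced inputs and outputs, keeping genotypes with ≥10 input reads and ≥1 read per output.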
row,Variant,polymerase ribozyme fitness (log ratio)
1,C101A U106C G110C U134G,-4.82
2,C115A G122A,-0.767
3,U106C A118U,-0.171
4,A105U C124U,-0.354
5,A95U A119U U125A G127U,-2.7
6,U96G U129C,-0.569
7,U112A U130C,1.38
8,U112A U130G,-0.266
9,C99A U112G C114U,-6.6
10,C114U G117C,-7.14
11,G113U U126A,-4.71
12,G93C C102A,-2.96
13,U112G U125C,0.47
14,G110U A121C,-2.17
15,G107U C114U,-3.8
16,C101G G122C C124A U126A,-3.82
17,C101G C115U,-3.55
18,C101G G127U,-2.83
19,U109C C114U,-4.7
20,C101A U132A,-0.824
21,C94U C114U,-2.58
22,C98U G110C,-4.91
23,C98U G110A,-2.39
24,C99U U133A,-2.99

row,Variant,polymerase ribozyme fitness (log ratio)
1,G113C C124U G127C,-3.7
2,G113C G122A,-3.11
3,G113C G122U,-1.42
4,G93U G128C,-4.57
5,G93A U130G,-1.45
6,A95U G113U U125A,-3.81
7,A111C U131A,-1.12
8,C98U U125G,-2.35
9,C101G C102A U130C,-4.99
10,G93C C104A A118U,-1.82
11,C94A G127U U134G G135U,-2.31
12,A95G C98G G120U,-6.09
13,C99A C102U,-4.82
14,G107U A111U,-4.03
15,G93C A121U,1.21
16,G110A G127C,-1.94
17,C94U G107A,-4.87
18,C98U U112A,-1.61
19,A111C U126C,0.272
20,C102A G135U,-3.13
21,C97A C114U,-5.03
22,A100C G110C,-4.94
23,U92G C104G,-7.29
24,C104U G110A,-0.458

row,Variant,polymerase ribozyme fitness (log ratio)
1,C98U U116C,-1.99
2,C98A A100G C114A,-6.06
3,C102A A121U U131C,0.0525
4,G110U G135C,-1.54
5,U92G G122U C124U U126C,-5.41
6,A108G G113A,-2.47
7,U109C A118U,-4.34
8,G93U U112A,0.151
9,C101U G107C,-6.63
10,G93U C101A G113A C115G,-4.73
11,G113C C115U,-3.35
12,A105C U125G,-3.17
13,C98U U116A A119G,-0.385
14,G93A U96A,-1.69
15,C104A U116A,-5.02
16,C101U G110C,-3.42
17,C94A U112C U126G,-0.847
18,U96G G113U,-3.21
19,C101A G113A,-2.4
20,G93U A121U,1.23
21,C114G C124A,-1.15
22,C98A C123U,-4.06
23,G110A U112C G117A,-4.79
24,C94A G128A U129G,-3.11

row,Variant,polymerase ribozyme fitness (log ratio)
1,G93A G110A U112A,-2.76
2,A111G C114G C123U,-6.41
3,C94U G135U,-1.34
4,G113C G128U,-4.01
5,U96C A100U,-1.08
6,A108U C123G,-3.08
7,A108U C123A,-5.15
8,C98A G120A,-3.18
9,C114U U126A,-3.35
10,C97U U129A,-2.18
11,C99U A121G,-0.804
12,C101A G117U G122A U125A,-4.5
13,C104U U112G,0.761
14,G110C G120U,-4.38
15,G93A A118U U133A,0.0816
16,G110A C124G G128C,-3.19
17,C97U U125G,-1.25
18,C97U U125A,-1.31
19,G93C C101A C123A U125A U131A,-1.5
20,A95G C102U,-1.91
21,G93U U96G,-1.89
22,U96G C102G C124U U125A,-6.03
23,G110C A118U,-4.26
24,C94A G113A,-0.888

row,Variant,polymerase ribozyme fitness (log ratio)
1,U96C A118U,1.27
2,U109A G120C,-4
3,A100U G113C,-2.85
4,C94A G110U,-2.28
5,A111U U125A,-3.84
6,G110C G128U,-4.78
7,U96A U125G,-1.93
8,U112C U116A,-1.02
9,C97U A119U C123A,-1.43
10,C101A U126G G127C,-2.49
11,C102A C115G,-3.72
12,C104U C115A,0.0102
13,C104U C115G,-1.22
14,C115A G120U,-0.0245
15,G93C U112A,0.679
16,A105U G135U,-2.99
17,A105U G135C,-2.07
18,C102U A121G,0.0036
19,C101G U133G,-2.02
20,C101U U112C,0.493
21,C101U U112A,0.284
22,C101A C102A,-5
23,A103U U132A,-5.02
24,C98A U112G,-5.66

row,Variant,polymerase ribozyme fitness (log ratio)
1,A95C A108G G110U,-4
2,G110C U129G,-5.19
3,U92G G93C,-3.76
4,A105U U116C,-3.7
5,C101U U116C A119G U129A,1.01
6,G110A G113A,-3.95
7,U96A U131G,-1.96
8,U112A G135A,2.15
9,G93C A105U C114G A119G,-7.51
10,C102A G120U U130G,-2.39
11,G93U G122A,-1.55
12,U112G A118G,0.909
13,A111G U132A,0.715
14,C115A A119U G122U,-0.198
15,G113A G128A,-2.92
16,G113U C114A,-4.29
17,G93C A100C,-2.34
18,C99A U132C,-4.94
19,U96A C115A,-3.09
20,U96A C123G,0.707
21,C101U A121G U126A,1.07
22,C114U C123U,-1.92
23,A100U U125G,-0.739
24,C104G U106A C124G,-3.47

row,Variant,polymerase ribozyme fitness (log ratio)
1,C101U G117C,-3.39
2,U96C U106A,-1.43
3,A95C U106A C124U,1.29
4,U112G G127C U130C,-0.498
5,C101A G113A G122C,-1.6
6,A95G G117C,-3.87
7,A105C G120A A121U,-1.51
8,G93A,-0.498
9,G93U,-1.12
10,G93C,-0.928
11,G93A C123G,0.42
12,C99U C115G,-4.9
13,C99A G120C,-3.95
14,C94U G120C,0.688
15,G93A G110U,-2.04
16,G93C U106A,-0.61
17,A100U U129A,-0.992
18,U106G G117C,-1.59
19,U96G C102A G127C,-3.73
20,U106A U129A,-1.17
21,C99U U132C,-3.53
22,U112A G120A,0.565
23,C115G G128U,-5

# Reference: the RNAGym collection of RNA variant scans (doi:10.1073/pnas.2313332121)
